Results: publication PMC5591277, “Usb1 controls U6 snRNP assembly through evolutionarily divergent cyclic phosphodiesterase activities”

Legend:
[1] = molecular target: T1, Lsm2-8 complex (Saccharomyces cerevisiae, UniProt P38203;P57743;P40070;P40089;Q06406;P53905;P47093 …); experiment: fluorescence polarization; Hill 1.6; EMSA: 5 nM Cy3-U6, 100 mM KCl, 20% sucrose, 20 mM bis-tris/10 mM HCl, 1 mM EDTA, 1 mM TCEP, 0.01% Triton X-100, 0.1 mg/mL tRNA, 0.01 mg/mL heparin, 0.1 mg/mL BSA, room temp 20 min (gel 4 C); FP: 0.25-1 nM FAM-RNA, 100 mM NaCl, 20 mM bis-tris/10 mM HCl, 1 mM TCEP, 5% glycerol, 1 mM EDTA, yeast tRNA, BSA; conditions: protein: recombinant; tags: His on Lsm8 and GST on Lsm6, removed by TEV; copies: 1;1;1;1;1;1;1; label: 5' 6-FAM
T1 sequence 1: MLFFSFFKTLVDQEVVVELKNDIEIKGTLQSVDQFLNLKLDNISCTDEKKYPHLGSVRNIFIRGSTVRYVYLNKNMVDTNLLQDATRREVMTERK
T1 sequence 2: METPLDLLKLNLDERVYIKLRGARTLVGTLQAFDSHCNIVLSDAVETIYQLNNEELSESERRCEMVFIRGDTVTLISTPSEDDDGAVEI
T1 sequence 3: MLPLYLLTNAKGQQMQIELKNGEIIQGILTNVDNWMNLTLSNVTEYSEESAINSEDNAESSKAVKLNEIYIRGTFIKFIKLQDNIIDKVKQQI
T1 sequence 4: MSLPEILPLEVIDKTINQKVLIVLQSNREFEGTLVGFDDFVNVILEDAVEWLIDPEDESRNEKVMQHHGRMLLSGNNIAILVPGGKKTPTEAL
T1 sequence 5: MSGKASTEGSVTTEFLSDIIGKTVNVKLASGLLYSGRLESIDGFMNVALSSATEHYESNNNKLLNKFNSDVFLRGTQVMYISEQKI
T1 sequence 6: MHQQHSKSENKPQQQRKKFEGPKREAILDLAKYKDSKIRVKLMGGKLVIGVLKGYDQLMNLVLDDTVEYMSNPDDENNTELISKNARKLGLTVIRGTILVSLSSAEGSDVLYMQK
T1 sequence 7: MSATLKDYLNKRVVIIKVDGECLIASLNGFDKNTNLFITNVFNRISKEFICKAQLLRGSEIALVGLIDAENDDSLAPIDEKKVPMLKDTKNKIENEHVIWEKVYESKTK

[2] = molecular target: T2, Lhp1 (yeast La protein) (Saccharomyces cerevisiae, UniProt P33399 1-275); experiment: fluorescence polarization; Hill 1.27; EMSA: 5 nM Cy3-U6, 100 mM KCl, 20% sucrose, 20 mM bis-tris/10 mM HCl, 1 mM EDTA, 1 mM TCEP, 0.01% Triton X-100, 0.1 mg/mL tRNA, 0.01 mg/mL heparin, 0.1 mg/mL BSA, room temp 20 min (gel 4 C); FP: 0.25-1 nM FAM-RNA, 100 mM NaCl, 20 mM bis-tris/10 mM HCl, 1 mM TCEP, 5% glycerol, 1 mM EDTA, yeast tRNA, BSA; conditions: protein: recombinant; tags: N-terminal His8-TEV; label: 5' 6-FAM
T2 sequence: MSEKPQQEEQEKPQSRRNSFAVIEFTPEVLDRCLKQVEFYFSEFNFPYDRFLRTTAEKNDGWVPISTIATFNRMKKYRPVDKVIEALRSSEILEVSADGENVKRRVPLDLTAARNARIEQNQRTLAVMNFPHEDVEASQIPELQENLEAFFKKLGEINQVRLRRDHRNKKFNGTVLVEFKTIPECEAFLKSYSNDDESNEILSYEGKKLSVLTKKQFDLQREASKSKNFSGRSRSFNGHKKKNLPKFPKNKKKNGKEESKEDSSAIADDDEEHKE

[3] = molecular target: T1, Lsm2-8 complex; experiment: fluorescence polarization; Hill 1.3; EMSA: 5 nM Cy3-U6, 100 mM KCl, 20% sucrose, 20 mM bis-tris/10 mM HCl, 1 mM EDTA, 1 mM TCEP, 0.01% Triton X-100, 0.1 mg/mL tRNA, 0.01 mg/mL heparin, 0.1 mg/mL BSA, room temp 20 min (gel 4 C); FP: 0.25-1 nM FAM-RNA, 100 mM NaCl, 20 mM bis-tris/10 mM HCl, 1 mM TCEP, 5% glycerol, 1 mM EDTA, yeast tRNA, BSA; conditions: protein: recombinant; tags: His on Lsm8 and GST on Lsm6, removed by TEV; copies: 1;1;1;1;1;1;1; label: 5' 6-FAM
[4] = molecular target: T1, Lsm2-8 complex; experiment: fluorescence polarization; Hill 1.0; EMSA: 5 nM Cy3-U6, 100 mM KCl, 20% sucrose, 20 mM bis-tris/10 mM HCl, 1 mM EDTA, 1 mM TCEP, 0.01% Triton X-100, 0.1 mg/mL tRNA, 0.01 mg/mL heparin, 0.1 mg/mL BSA, room temp 20 min (gel 4 C); FP: 0.25-1 nM FAM-RNA, 100 mM NaCl, 20 mM bis-tris/10 mM HCl, 1 mM TCEP, 5% glycerol, 1 mM EDTA, yeast tRNA, BSA; conditions: protein: recombinant; tags: His on Lsm8 and GST on Lsm6, removed by TEV; copies: 1;1;1;1;1;1;1; label: 5' 6-FAM
[5] = molecular target: T2, Lhp1 (yeast La protein); experiment: fluorescence polarization; Hill 1.11; EMSA: 5 nM Cy3-U6, 100 mM KCl, 20% sucrose, 20 mM bis-tris/10 mM HCl, 1 mM EDTA, 1 mM TCEP, 0.01% Triton X-100, 0.1 mg/mL tRNA, 0.01 mg/mL heparin, 0.1 mg/mL BSA, room temp 20 min (gel 4 C); FP: 0.25-1 nM FAM-RNA, 100 mM NaCl, 20 mM bis-tris/10 mM HCl, 1 mM TCEP, 5% glycerol, 1 mM EDTA, yeast tRNA, BSA; conditions: protein: recombinant; tags: N-terminal His8-TEV; label: 5' 6-FAM

B1: U6 95-112 3'OH (ssRNA)
RNA: AGAGAUUUAUUUCGUUUU
modifications: 2',3'-cis-diol end
[1]
  Kd: 85 ± 1 nM
[2]
  Kd: 43 ± 1 nM

B2: U6 95-112 3'P (ssRNA)
RNA: AGAGAUUUAUUUCGUUUU
modifications: 3' phosphate
[3]
  Kd: 10 ± 1 nM

B3: U6 95-112+1U 3'P (ssRNA)
RNA: AGAGAUUUAUUUCGUUUUU
modifications: 3' phosphate
[4]
  Kd: 3 ± 1 nM

B4: U6 95-112+1U 3'OH (ssRNA)
RNA: AGAGAUUUAUUUCGUUUUU
modifications: 2',3'-cis-diol end
[5]
  Kd: 29 ± 1 nM
[4]
  Kd: 17 ± 1 nM
